Measurements taken from article PMC8307404, “Crystal Structure-Guided Design of Bisubstrate Inhibitors and Photoluminescent Probes for Protein Kinases of the PIM Family” (Molecules, 2021).
Square brackets hold non-standard residues; d marks the D form. Peptide text beside a SMILES is read from it. * marks the point of attachment. X3 = O=C(CCCCCNCc1nc2c(sc3cc(Br)cnc32)c(=O)[nH]1)*

Assays:
Test in all cases: Kinase profiling (radiometric filter-binding)
Assay type in all cases: biochemical
[1] = biological target: T1, EPH-B2 (Homo sapiens, UniProt P29323); conditions: EPH-B2, 1 µM inhibitor; read-out: Residual activity, %
T1 sequence (P29323 19-1055): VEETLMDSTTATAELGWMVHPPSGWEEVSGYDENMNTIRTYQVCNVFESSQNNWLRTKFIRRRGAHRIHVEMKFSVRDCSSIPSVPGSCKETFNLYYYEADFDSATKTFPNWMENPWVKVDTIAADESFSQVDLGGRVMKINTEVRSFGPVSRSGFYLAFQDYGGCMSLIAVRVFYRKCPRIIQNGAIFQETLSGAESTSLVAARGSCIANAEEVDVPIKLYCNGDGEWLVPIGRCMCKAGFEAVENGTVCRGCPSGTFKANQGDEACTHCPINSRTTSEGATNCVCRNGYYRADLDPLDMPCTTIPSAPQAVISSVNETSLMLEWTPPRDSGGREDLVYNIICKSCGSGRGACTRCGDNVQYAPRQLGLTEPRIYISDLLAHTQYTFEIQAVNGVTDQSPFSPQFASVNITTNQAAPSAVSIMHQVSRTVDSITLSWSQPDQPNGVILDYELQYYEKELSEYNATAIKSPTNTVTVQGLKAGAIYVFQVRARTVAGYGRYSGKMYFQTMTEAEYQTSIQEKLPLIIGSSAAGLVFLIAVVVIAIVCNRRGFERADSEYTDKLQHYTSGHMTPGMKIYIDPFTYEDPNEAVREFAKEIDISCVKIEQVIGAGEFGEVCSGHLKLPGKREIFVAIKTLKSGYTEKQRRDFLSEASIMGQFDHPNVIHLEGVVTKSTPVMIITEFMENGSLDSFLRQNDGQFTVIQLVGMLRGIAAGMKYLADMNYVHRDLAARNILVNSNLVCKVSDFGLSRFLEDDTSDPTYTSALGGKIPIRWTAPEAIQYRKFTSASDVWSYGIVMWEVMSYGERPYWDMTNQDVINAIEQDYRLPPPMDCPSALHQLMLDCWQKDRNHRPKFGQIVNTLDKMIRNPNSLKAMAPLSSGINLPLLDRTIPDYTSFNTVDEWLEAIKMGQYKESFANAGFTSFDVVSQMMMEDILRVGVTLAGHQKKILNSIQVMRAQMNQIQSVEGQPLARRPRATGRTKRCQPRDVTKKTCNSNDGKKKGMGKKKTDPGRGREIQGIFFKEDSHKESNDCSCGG
Procedure, shortened: (§1)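 Single-point selectivity screen at 1 µM total inhibitor concentration across a panel of 139 or 140 human PKs, using radioactive filter-binding detection with ATP near or below KM; data are % activity remaining versus untreated control.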

[2] = biological target: MLK3 (Homo sapiens, UniProt Q16584); conditions: MLK3, 1 µM inhibitor; read-out: Residual activity, %
Procedure, shortened: as §1

[3] = biological target: T2, DDR2 (Homo sapiens, UniProt Q16832); conditions: DDR2, 1 µM inhibitor; read-out: Residual activity, %
T2 sequence (Q16832 22-855): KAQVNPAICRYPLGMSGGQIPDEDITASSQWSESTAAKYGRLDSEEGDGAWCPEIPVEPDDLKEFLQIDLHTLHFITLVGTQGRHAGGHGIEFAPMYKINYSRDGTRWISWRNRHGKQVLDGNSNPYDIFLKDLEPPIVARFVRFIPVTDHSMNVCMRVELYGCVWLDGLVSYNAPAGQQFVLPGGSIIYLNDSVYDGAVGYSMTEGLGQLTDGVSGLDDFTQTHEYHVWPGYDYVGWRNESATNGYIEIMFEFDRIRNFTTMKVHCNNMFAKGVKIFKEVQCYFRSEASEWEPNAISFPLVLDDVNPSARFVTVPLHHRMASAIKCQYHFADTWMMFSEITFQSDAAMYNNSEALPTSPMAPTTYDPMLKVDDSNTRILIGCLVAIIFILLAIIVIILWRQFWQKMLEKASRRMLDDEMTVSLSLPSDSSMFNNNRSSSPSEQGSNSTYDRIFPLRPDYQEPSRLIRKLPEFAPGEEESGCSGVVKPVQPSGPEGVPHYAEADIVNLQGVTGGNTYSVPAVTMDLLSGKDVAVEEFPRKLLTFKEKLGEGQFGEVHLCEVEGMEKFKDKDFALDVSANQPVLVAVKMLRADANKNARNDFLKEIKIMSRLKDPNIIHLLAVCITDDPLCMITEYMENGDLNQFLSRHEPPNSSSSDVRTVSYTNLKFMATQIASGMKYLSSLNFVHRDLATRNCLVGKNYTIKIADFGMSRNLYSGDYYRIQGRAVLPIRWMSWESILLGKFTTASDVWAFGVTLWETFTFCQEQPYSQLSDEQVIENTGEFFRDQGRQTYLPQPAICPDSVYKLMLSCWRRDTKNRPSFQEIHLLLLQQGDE
Procedure, shortened: as §1

[4] = biological target: MKK2 (Homo sapiens, UniProt P36507); conditions: MKK2, 1 µM inhibitor; read-out: Residual activity, %
Procedure, shortened: as §1

[5] = biological target: T3, CHK1 (Homo sapiens, UniProt O14757); conditions: CHK1, 1 µM inhibitor; read-out: Residual activity, %
T3 sequence (O14757 1-476): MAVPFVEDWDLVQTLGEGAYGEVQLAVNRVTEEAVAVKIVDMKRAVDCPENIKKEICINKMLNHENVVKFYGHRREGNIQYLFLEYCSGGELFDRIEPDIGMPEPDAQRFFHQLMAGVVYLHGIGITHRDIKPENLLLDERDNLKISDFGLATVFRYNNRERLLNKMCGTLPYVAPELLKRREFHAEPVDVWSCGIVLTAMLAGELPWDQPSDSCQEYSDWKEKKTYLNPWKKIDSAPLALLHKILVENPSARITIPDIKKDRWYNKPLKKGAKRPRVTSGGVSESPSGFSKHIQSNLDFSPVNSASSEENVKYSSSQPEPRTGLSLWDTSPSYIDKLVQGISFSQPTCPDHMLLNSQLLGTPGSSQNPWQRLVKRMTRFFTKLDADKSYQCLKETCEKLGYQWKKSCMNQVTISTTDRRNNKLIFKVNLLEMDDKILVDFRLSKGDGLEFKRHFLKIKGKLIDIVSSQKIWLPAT
Procedure, shortened: as §1

[6] = biological target: IR (Homo sapiens, UniProt P06213); conditions: 1 µM inhibitor, read-out: Residual activity, %
Procedure, shortened: as §1

Chain of IR (P06213 28-1382): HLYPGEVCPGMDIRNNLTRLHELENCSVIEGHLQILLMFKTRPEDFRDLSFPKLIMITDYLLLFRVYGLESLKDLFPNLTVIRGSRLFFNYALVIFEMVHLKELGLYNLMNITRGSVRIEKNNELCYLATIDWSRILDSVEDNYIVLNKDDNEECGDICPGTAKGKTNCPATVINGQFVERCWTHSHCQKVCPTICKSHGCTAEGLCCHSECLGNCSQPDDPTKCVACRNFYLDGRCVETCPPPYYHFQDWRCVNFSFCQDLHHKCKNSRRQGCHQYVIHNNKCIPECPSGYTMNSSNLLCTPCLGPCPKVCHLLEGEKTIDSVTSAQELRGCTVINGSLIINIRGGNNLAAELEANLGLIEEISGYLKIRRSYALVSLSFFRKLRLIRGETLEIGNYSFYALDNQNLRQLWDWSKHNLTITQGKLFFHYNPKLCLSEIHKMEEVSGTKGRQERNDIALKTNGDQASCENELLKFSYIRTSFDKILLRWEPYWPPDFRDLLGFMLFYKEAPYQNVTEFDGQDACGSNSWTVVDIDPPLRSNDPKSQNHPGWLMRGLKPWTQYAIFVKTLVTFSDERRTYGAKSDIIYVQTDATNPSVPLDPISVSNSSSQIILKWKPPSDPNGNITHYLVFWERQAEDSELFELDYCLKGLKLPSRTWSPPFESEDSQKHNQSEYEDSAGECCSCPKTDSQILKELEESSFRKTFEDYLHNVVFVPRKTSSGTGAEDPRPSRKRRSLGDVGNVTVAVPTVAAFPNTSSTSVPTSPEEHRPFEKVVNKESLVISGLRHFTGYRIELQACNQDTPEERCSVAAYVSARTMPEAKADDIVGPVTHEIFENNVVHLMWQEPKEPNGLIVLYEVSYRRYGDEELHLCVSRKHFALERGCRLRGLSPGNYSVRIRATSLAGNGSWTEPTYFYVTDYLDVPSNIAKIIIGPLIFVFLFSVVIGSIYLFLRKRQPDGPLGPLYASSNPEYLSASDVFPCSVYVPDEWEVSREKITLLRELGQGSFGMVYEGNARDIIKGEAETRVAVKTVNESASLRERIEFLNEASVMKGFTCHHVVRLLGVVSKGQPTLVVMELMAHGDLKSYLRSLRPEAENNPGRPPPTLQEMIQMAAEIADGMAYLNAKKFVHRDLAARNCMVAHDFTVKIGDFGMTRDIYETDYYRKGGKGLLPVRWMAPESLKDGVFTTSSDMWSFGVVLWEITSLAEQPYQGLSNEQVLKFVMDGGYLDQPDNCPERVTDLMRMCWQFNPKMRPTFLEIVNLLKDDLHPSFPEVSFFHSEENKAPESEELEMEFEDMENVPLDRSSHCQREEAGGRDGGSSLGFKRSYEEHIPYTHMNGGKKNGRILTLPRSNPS
Chain of MKK2 (P36507 whole entry): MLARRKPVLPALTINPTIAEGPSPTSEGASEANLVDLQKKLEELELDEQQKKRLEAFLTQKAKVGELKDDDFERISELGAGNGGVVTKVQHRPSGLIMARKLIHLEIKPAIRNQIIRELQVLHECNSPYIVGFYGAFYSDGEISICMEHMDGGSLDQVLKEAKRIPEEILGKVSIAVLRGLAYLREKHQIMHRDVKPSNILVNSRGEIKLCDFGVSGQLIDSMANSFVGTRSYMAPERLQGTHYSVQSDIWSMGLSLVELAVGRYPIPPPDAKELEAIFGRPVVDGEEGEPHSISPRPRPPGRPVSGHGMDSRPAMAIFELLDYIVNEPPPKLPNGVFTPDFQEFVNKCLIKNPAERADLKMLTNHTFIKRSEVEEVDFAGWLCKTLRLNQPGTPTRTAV
Chain of MLK3 (Q16584 whole entry): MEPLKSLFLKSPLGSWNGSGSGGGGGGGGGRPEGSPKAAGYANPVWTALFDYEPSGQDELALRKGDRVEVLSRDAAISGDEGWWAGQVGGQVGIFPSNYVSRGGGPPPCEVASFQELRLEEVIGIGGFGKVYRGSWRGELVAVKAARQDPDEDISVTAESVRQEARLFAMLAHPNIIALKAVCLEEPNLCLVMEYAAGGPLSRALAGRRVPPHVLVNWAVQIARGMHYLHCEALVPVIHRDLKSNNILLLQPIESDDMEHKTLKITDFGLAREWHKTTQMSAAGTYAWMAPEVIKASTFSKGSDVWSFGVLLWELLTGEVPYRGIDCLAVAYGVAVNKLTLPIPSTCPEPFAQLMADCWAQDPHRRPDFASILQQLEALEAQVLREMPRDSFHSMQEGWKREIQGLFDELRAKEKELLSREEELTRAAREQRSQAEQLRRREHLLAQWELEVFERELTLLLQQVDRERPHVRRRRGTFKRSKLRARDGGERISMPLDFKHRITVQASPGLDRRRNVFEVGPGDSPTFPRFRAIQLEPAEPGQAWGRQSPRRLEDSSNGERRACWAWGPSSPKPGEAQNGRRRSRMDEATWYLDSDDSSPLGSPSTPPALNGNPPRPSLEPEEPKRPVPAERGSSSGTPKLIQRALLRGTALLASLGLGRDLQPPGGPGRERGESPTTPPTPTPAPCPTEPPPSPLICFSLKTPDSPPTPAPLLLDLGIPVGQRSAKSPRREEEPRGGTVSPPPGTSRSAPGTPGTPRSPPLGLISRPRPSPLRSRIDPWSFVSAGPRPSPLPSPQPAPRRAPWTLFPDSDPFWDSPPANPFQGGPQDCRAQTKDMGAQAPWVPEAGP

| SMILES | remaining activity at 1 µM [1] [%] | remaining activity at 1 µM [2] [%] | remaining activity at 1 µM [3] [%] | remaining activity at 1 µM [4] [%] | remaining activity at 1 µM [5] [%] | remaining activity at 1 µM [6] [%] |
| --- | --- | --- | --- | --- | --- | --- |
| N=C(N)NCCC[C@@H](NC(=O)CNC(=O)[C@@H](CCCNC(=N)N)NC(=O)[C@@H](CCCNC(=N)N)NC(=O)Cn1cc(CNCc2nc3c(sc4ccc(Br)cc43)c(=O)[nH]2)nn1)C(=O)N[C@H](CCCCN)C(N)=O [Compound 3, BBTP-Amt-(D-Arg)2-Gly-D-Arg-D-Lys-NH2] | 96 ± 14 | 94 ± 2 | 112 ± 6 | 96 ± 7 | 104 ± 2 | 113 ± 23 |
| N=C(N)NCCC[C@@H](NC(=O)CCCCCNCc1nc2c(sc3cc(Br)cnc32)c(=O)[nH]1)C(=O)N[C@H](CCCNC(=N)N)C(=O)N[C@H](CCCNC(=N)N)C(=O)N[C@H](CCCNC(=N)N)C(=O)N[C@H](CCCNC(=N)N)C(=O)N[C@H](CCCNC(=N)N)C(=O)N[C@H](CCCCN)C(N)=O [ARC-3126, BPTP-Ahx-(D-Arg)6-D-Lys-NH2] (X3-[dR][dR][dR][dR][dR][dR][dK]-NH2) | 107 ± 4 | 117 ± 10 | 93 ± 3 | 117 ± 14 | 100 ± 6 | 117 ± 6 |
| N=C(N)NCCC[C@@H](NC(=O)CCCCCNC(=O)Cn1cnc2c(I)c(I)c(I)c(I)c21)C(=O)N[C@H](CCCNC(=N)N)C(=O)N[C@H](CCCNC(=N)N)C(=O)N[C@H](CCCNC(=N)N)C(=O)N[C@H](CCCNC(=N)N)C(=O)N[C@H](CCCNC(=N)N)C(=O)N[C@H](CCCCN)C(N)=O [ARC-3125, TIBI-CH2-C(=O)-Ahx-(D-Arg)6-D-Lys-NH2] | 102 ± 8 | 98 ± 2 | 84 ± 13 | 68 ± 5 | 76 ± 1 | 22 ± 6 |
| N=C(N)NCCC[C@@H](NC(=O)CNC(=O)[C@@H](CCCNC(=N)N)NC(=O)[C@@H](CCCNC(=N)N)NC(=O)CCCCCCCNCc1nc2c(sc3cc(Br)cnc32)c(=O)[nH]1)C(=O)N[C@H](CCCCN)C(N)=O [Compound 1, BPTP-Aoc-(D-Arg)2-Gly-D-Arg-D-Lys-NH2] | 95 ± 16 | 105 ± 5 | 104 ± 22 | 102 ± 5 | 122 ± 17 | 122 ± 7 |
| N=C(N)NCCC[C@@H](NC(=O)CNC(=O)[C@@H](CCCNC(=N)N)NC(=O)[C@@H](CCCNC(=N)N)NC(=O)CCCCCCCNCc1nc2c(sc3ccc(Br)cc32)c(=O)[nH]1)C(=O)N[C@H](CCCCN)C(N)=O [Compound 2, BBTP-Aoc-(D-Arg)2-Gly-D-Arg-D-Lys-NH2] | 100 ± 5 | 107 ± 1 | 107 ± 7 | 108 ± 11 | 112 ± 6 | 139 ± 35 |
